Values quoted from earlier work, collected in publication PMC4596410.

Molecular target: Lys115 (UniProt position 115, LSAYPKKLGYP)

Acetoacetate decarboxylase (not stated in the article (Clostridium acetobutylicum inferred))
pKa: 6
